Assays:
STAT 1 protein = molecular target: T1, STAT 1 protein (UniProt P42224 1-750, limits assumed); test: sandwich ELISA, STAT protein coated at 0.5 µg/mL
T1 sequence (looked up): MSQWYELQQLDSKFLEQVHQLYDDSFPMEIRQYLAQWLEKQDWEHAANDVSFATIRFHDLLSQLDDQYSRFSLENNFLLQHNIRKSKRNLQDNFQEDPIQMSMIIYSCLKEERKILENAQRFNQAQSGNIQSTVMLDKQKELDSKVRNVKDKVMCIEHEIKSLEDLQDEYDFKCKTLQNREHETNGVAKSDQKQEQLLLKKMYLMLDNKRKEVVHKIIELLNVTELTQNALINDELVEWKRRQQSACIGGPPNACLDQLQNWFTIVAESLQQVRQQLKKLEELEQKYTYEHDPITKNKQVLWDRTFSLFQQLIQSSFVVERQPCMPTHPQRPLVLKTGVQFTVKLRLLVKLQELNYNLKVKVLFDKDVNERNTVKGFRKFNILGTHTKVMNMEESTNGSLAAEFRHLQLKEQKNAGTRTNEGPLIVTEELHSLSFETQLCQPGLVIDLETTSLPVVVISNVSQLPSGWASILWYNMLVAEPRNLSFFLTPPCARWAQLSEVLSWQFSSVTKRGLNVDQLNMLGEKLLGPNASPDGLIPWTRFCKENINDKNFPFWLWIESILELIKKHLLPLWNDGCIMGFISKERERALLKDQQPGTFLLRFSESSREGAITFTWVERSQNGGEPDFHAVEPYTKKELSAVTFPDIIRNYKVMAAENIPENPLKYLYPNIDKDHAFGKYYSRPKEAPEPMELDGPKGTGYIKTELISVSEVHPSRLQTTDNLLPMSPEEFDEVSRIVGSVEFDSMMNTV

STAT 3 protein = STAT 3 protein (UniProt P40763 1-770, limits assumed); test: sandwich ELISA, STAT protein coated at 0.5 µg/mL

Mean OD450 (STAT 1 protein): 0.026 OD450
Mean OD450 (STAT 3 protein): 0.063 OD450
B1: anti-STAT3 VHH13 (SEQ ID NO:3) sdAb (VHH)
VHH: HVQLVESGGGSVQAGGSLRLSCAASGANGGRSCMGWFRQVPGKEREGVSGISTGGLITYYADSVKGRFTISQDNTKNTLYLQMNSLKPEDTAMYYCATSRFDCYRGSWFNRYMYNSWGQGTQVTVSS

Source: patent US20170327598A1 (published 2017)
